What was measured:
[1] = target: γ chain (γ subunit of FcγRI and FcγRIIIA); assay: cell-based or functional assay
[2] = tested on: J32/FcγRIIA and J32-3.2/FcγRIIA T-cell transfectants; assay: inhibition of sEA phagocytosis in FcγRIIA T-cell transfectants; type: cell-based; settings: preincubation of the cells in 10 μg/ml
Method: The ability of these T-cell transfectants to phagocytose IgG-sensitized cells was assessed by incubation with IgG coated sheep erythrocytes (sEA). In both the wild type J32 and mutant J32-3.2 transfectants, a number of the cells were able to phagocytose the sEA (FIG. 12).
Considering that 70%-100% of the cells are expressing FcγRIIA in these transfectants, and presumably are mediating phagocytosis through this receptor, the levels of phagocytosis observed are relatively low when compared, for example, to COS-1 fibroblasts transfected with FcγRIIA (Indik et al, J. Clin. Invest. 88:1766 (1991)). […] Also phagocytosis was inhibited when the transfectants were incubated with sEA at 0° C. instead of 37° C.

[3] = target: FcγRIIA (UniProt P12318)
[4] = target: FcγRIIA (UniProt P12318); assay: cell-based or functional assay
[5] = tested on: murine macrophages (P388D1); assay: phagocytosis by WT FcγRI transfected into murine macrophages; type: cell-based
Method: Wild type (WT) and a mutant (MT) FcγRI, engineered to omit the cytoplasmic domain (CYT), were transfected into COS cells and murine macrophages (P388D1). The phagocytic potential of the transformed cells was assessed using IgG-coated RBCs (EA) and RBCs conjugated with Fab anti-human FcγR1 mAb (E-mAb). […] However, both WT and MT FcγRI induced phagocytosis in P388D1. Phagocytosis by WT FcγRI was inhibited by the tyrosine kinase inhibitor tyrphostin 23. Furthermore, activation of FcγRI on monocytes with Fab anti-FcγRI induced tyrosine phosphorylation of FcγRII, determined by anti-phosphotyrosine immunoblots. FcγR1 thus mediates a Ca^2+ signal through its cytoplasmic domain but not phagocytosis. FcγRI induced phagocytosis therefore requires elements, present in macrophages but absent in COS cells, that permit transmembrane communication.

[6] = tested on: COS-1 cells; assay: phagocytosis of IgG-coated cells (EA) by FcγRIIIA-transfected COS-1 cells, electron microscopy; type: cell-based; settings: COS-1 transfectants
Description: A FcγRIIIA encoding sequence was transfected into COS-1 cells to study its phagocytic function, determined by electron microscopy, in the absence of other Fc receptors. […] To delineate the region of the γ chain important in phagocytosis, two deletion mutants, were constructed, deleting the C-terminal 7 amino acids or deleting the C-terminal 22 amino acids which have a tyrosine containing conserved motif, Y-X2-L-X7-Y-X2-L (SEQ ID NO:10), present in several Ig gene super family receptors. […] The role of the conserved cytoplasmic tyrosines was then examined.
Further, single chain Fcγ receptor chimeras, consisting of the γ cytoplasmic domain and the a extracellular domain with the transmembrane domain of either FcγRIIIA-γ or FcγRI were able to mediate a phagocytic signal. However, single chain chimeras were not sufficient for full phagocytic activity.

[7] = tested on: FcγRII; settings: cited from earlier work
[8] = tested on: splenic macrophage Fcγ receptors; settings: in vivo; cited from earlier work
[9] = tested on: FcγRI and FcγRII; settings: cited from earlier work
[10] = tested on: IgG sensitized 51Cr-guinea pig RBC (EA); assay: splenic macrophage clearance of IgG sensitized 51Cr-guinea pig RBC (EA), established guinea pig model; type: in vivo
Method: (§1) Human recombinant macrophage colony stimulating factor (hrM-CSF) was studied in vivo using an established model in the guinea pig (Schreiber et al, J. Clin. Invest. 51:575 (1972)). Adult male guinea pigs were treated for 5 days with hrM-CSF (500 μg/kg) and splenic macrophage FcγR function and protein expression were assessed by i) the splenic macrophage clearance of IgG sensitized ^51Cr-guinea pig RBC (EA), ii) the in vitro binding of EA by isolated splenic macrophage, and iii) FACS analysis using monoclonal antibodies with specificity for the two guinea pig splenic macrophage Fcγ receptors, FcγR1,2 and FcγR2. Treatment with hrM-CSF enchanced the clearance of EA by 72±5%. In addition, a greater proportion of isolated splenic macrophages from hrM-CSF treated animals bound EA in vitro: 80±7% vs 48±4% (sham), p<0.001. In vivo hrM-CSF increased the expression of both splenic macrophages Fcγ receptors: 81±6% and 130±10% for FcγR1,2 and FcγR2, respectively. The lowest effective dose of hrM-CSF was 250 μg/kg, increasing the expression of FcγR1,2 by 26±3% and FcγR2 by 42±4%. […] The effect of hrM-CSF required at least 4 days of treatment.

[11] = tested on: splenic macrophage; assay: in vitro binding of EA by isolated splenic macrophages from treated animals; type: in vivo, guinea pig; settings: animals treated 500 μg/kg for 5 days; sham 48±4%, p<0.001
Method: as §1

[12] = tested on: FcγR1,2; assay: FACS analysis of splenic macrophage Fcγ receptor expression with monoclonal antibodies; type: in vivo, guinea pig
Method: as §1

[13] = tested on: FcγR2; assay: as above; type: in vivo, guinea pig
Method: as §1

For Syk (enzyme), the enhancement of phagocytosis mediated by FcγRI/γ on co-transfection of Syk in COS-1 cells [1] was 8 fold and the enhancement of phagocytosis mediated by FcγRIIIA/γ on co-transfection of Syk in COS-1 cells [1] was 6.1 fold.

For `C=C1[C@@H](C)[C@H]2[C@H](Cc3ccccc3)NC(=O)[C@]23[C@H](OC(C)=O)/C=C/[C@@](C)(O)C(=O)[C@@H](C)C/C=C/[C@H]3[C@@H]1O` [cytochalasin-D], the “effect on phagocytosis of sEA” value [2] was “abolished phagocytosis”.

In the case of Src, the “in vitro immune complex kinase assay: phosphorylation of FcγRIIA” value [3] is reported as “FcγRIIA was phosphorylated by Src in this in vitro assay”.

In the case of “IgG on IgG-sensitized sheep red blood cells (EA) (antibody)”, the % phagocytic cells, J32-3.2/FcγRIIA bulk transfectants, experiment 2 [4] is reported as 5%, the % phagocytic cells, J32-3.2/FcγRIIA bulk transfectants, experiment 3 [4] is reported as 13% and the % phagocytic cells, J32-3.2/FcγRIIA bulk transfectants, experiment 4 [4] is reported as 17%. It also gave a % phagocytic cells, J32-3.2/FcγRIIA bulk transfectants, experiment 6 [4] of 6%, a % phagocytic cells, J32/FcγRIIA bulk transfectants, experiment 1 [4] of 17% and a % phagocytic cells, J32/FcγRIIA bulk transfectants, experiment 2 [4] of 33%. The % phagocytic cells, J32/FcγRIIA bulk transfectants, experiment 3 [4] was 25%, the % phagocytic cells, J32/FcγRIIA bulk transfectants, experiment 4 [4] was 32% and the % phagocytic cells, J32/FcγRIIA bulk transfectants, experiment 5 [4] was 31%. It also gave a % phagocytic cells, J32/FcγRIIA bulk transfectants, experiment 6 [4] of 14%, a corrected phagocytic index (cP1), J32-3.2/FcγRIIA bulk transfectants, experiment 2 (erythrocytes ingested per 100 cells) [4] of 7 and a corrected phagocytic index (cP1), J32-3.2/FcγRIIA bulk transfectants, experiment 3 (erythrocytes ingested per 100 cells) [4] of 21. For the same molecule, the corrected phagocytic index (cP1), J32-3.2/FcγRIIA bulk transfectants, experiment 4 (erythrocytes ingested per 100 cells) [4] was 24, the corrected phagocytic index (cP1), J32-3.2/FcγRIIA bulk transfectants, experiment 6 (erythrocytes ingested per 100 cells) [4] was 9 and the percent of cells that phagocytosed EA, FcγRIIA-infected D58 (Src+) cells [4] was 70 percent. It also gave a percent of cells that phagocytosed EA, FcγRIIA-infected SAR6 (Src-) cells [4] of 43 percent, a phagocytic index (P1), J32-3.2/FcγRIIA bulk transfectants, experiment 2 (erythrocytes ingested per 100 cells) [4] of 6 and a phagocytic index (P1), J32-3.2/FcγRIIA bulk transfectants, experiment 3 (erythrocytes ingested per 100 cells) [4] of 18. For the same molecule, the phagocytic index (P1), J32-3.2/FcγRIIA bulk transfectants, experiment 4 (erythrocytes ingested per 100 cells) [4] was 21, the phagocytic index (P1), J32-3.2/FcγRIIA bulk transfectants, experiment 6 (erythrocytes ingested per 100 cells) [4] was 8 and the phagocytic index (P1), J32/FcγRIIA bulk transfectants, experiment 1 (erythrocytes ingested per 100 cells) [4] was 28. The phagocytic index (P1), J32/FcγRIIA bulk transfectants, experiment 2 (erythrocytes ingested per 100 cells) [4] was 22, the phagocytic index (P1), J32/FcγRIIA bulk transfectants, experiment 3 (erythrocytes ingested per 100 cells) [4] was 40 and the phagocytic index (P1), J32/FcγRIIA bulk transfectants, experiment 4 (erythrocytes ingested per 100 cells) [4] was 53. It also gave a phagocytic index (P1), J32/FcγRIIA bulk transfectants, experiment 5 (erythrocytes ingested per 100 cells) [4] of 51 and a phagocytic index (P1), J32/FcγRIIA bulk transfectants, experiment 6 (erythrocytes ingested per 100 cells) [4] of 21.

For `N#CC(C#N)=Cc1ccc(O)c(O)c1` [tyrphostin 23], the “effect on phagocytosis by WT FcγRI” value [5] was “inhibited” and the “effect on FcγRIIIA phagocytosis” value [6] was “reversibly inhibited phagocytosis”.

In the case of “GM-CSF: hematopoietic growth factor, granulocyte-macrophage colony-stimulating factor”, the “effect on monocyte FcγRII expression and function” value [7] is given as “selectively increase monocyte FcγRII expression and function”.

B1: M-CSF: hematopoietic growth factor, macrophage colony stimulating factor (protein, UniProt P09603 33-554, looked up)
Macrophage colony-stimulating …: EEVSEYCSHMIGSGHLQSLQRLIDSQMETSCQITFEFVDQEQLKDPVCYLKKAFLLVQDIMEDTMRFRDNTPNAIAIVQLQELSLRLKSCFTKDYEEHDKACVRTFYETPLQLLEKVKNVFNETKNLLDKDWNIFSKNCNNSFAECSSQDVVTKPDCNCLYPKAIPSSDPASVSPHQPLAPSMAPVAGLTWEDSEGTEGSSLLPGEQPLHTVDPGSAKQRPPRSTCQSFEPPETPVVKDSTIGGSPQPRPSVGAFNPGMEDILDSAMGTNWVPEEASGEASEIPVPQGTELSPSRPGGGSMQTEPARPSNFLSASSPLPASAKGQQPADVTGTALPRVGPVRPTGQDWNHTPQKTDHPSALLRDPPEPGSPRISSLRPQGLSNPSTLSAQPQLSRSHSSGSVLPLGELEGRRSTRDRRSPAEPEGGPASEGAARPLPRFNSVPLTDTGHERQSEGSFSPQLQESVFHLLVPSVILVLLAVGGLLFYRWRRRSHQEPQRADSPLEQPEGSPLTQDDRQVELPV
In the case of B1, the “effect on splenic macrophage Fcγ receptors” value [8] is given as “increase splenic macrophage Fcγ receptors”.

B2: IFN-γ: the cytokine interferon gamma (protein, UniProt P01579 24-161, looked up)
Interferon gamma: QDPYVKEAENLKKYFNAGHSDVADNGTLFLGILKNWKEESDRKIMQSQIVSFYFKLFKNFKDDQSIQKSVETIKEDMNVKFFNSNKKKRDDFEKLTNYSVTDLNVQRKAIHELIQVMAELSPAAKTGKRKRSQMLFRG
For B2, the “effect on levels of FcγRI and FcγRII” value [9] is given as “modulate the levels of FcγRI and FcγRII”.

B3: hrM-CSF: Human recombinant macrophage colony stimulating factor (protein, UniProt P09603 33-554, looked up)
Macrophage colony-stimulating …: B1 Macrophage colony-stimulating …
For B3, the “enhancement of the clearance of EA” value ([10]; adult male guinea pigs, 500 μg/kg for 5 days) was 72±5%, the “days of treatment required for the effect” value ([10]; guinea pig) was “at least 4 days” and the lowest effective dose ([10]; guinea pig) was 0.25 mg/kg. For the same molecule, the “proportion of isolated splenic macrophages that bound EA in vitro” value [11] was 80±7%, the “increase in expression of FcγR1,2” value ([12]; 250 μg/kg) was 26±3% and the “increase in expression of splenic macrophage FcγR1,2” value ([12]; 500 μg/kg for 5 days) was 81±6%. The “increase in expression of FcγR2” value ([13]; 250 μg/kg) was 42±4% and the “increase in expression of splenic macrophage FcγR2” value ([13]; 500 μg/kg for 5 days) was 130±10%.
